The source of these data is patent US20090018316A1 (IMMUNEX, published 2009).

Test [1] has as its target T1, native human IL-15 receptor on human cells (human, UniProt Q13261 31-267).
T1 construct: whole, on cells; Endogenous receptor; its subunits on these cells were not defined; Clone W5 was later cloned from W126-VA4 cells, and clones A212 and A133 from A172 cells
As to the kind of experiment: radiolabeled IL-15 binding to vascular endothelial cells of arterial origin. From the text:
(§1) Various human cell lines and tissues were screened for the ability to bind radiolabeled IL-15 substantially as described in Example 1. High affinity binding was observed on activated peripheral blood mononuclear cells, activated monocytes and some EBV-transformed cell lines.

Test [2] concerns the target T2, murine IL-15R (full length, cDNA clone D1-4-D5) (murine, UniProt Q60819 33-263).
T2 construct: Cell-surface receptor: recombinant on COS-7 and 32D transfectants, native or endogenous on D10, 32D-01, 32Dmβ-5 and CTLL.2 cells; 32D lines also carry IL-2Rα and γc, and some carry IL-2Rβ; the cell line is named under assay; also called murine IL-15Rα; IL-15Rα
T2 sequence: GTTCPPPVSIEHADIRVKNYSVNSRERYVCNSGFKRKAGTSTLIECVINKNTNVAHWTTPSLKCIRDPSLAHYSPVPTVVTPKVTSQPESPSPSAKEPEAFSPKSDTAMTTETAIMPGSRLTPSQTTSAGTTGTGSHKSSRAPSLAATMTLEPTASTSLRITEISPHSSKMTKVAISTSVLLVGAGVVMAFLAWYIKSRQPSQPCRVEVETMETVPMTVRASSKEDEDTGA
Briefly: equilibrium binding of 125I-simian IL-15 to D10 cells (native IL-15R).

Test [3] concerns the target T2, murine IL-15R (full length, cDNA clone …). Briefly: equilibrium binding of 125I-simian IL-15 to 32Dm15Rα-102 cells (transfected with IL-15Rα).
Test [4] shares this target. As to the kind of experiment: 125I-IL-15 binding to monolayers of COS cells transfected with clone D1-4-D5. As for the experimental part:
D. Recombinant IL-15R Binding. Plasmid DNA from IL-15 receptor expression plasmid was used to transfect a sub-confluent layer of monkey COS-7 cells using DEAE-dextran followed by chloroquine treatment, as described by Luthman et al., Nucl Acids Res. 11:1295 (1983) and McCutchan et al., J. Natl. Cancer Inst. 41:351 (1968). The cells were then grown in culture for three days to permit transient expression of the inserted sequences. After three days, the cell monolayers were assayed for ¹²⁵I-IL-15 binding essentially as described by Park, et al., J. Exp. Med. 166:476 (1987). Non-specific binding of ¹²⁵I-IL-15 was measured in the presence of 200-fold or greater excess of unlabeled IL-15.

The target is the same in test [5]. As to the kind of experiment: equilibrium binding of 125I-simian IL-15 to parental 32D-01 cells (endogenous IL-15Rα).
Test [6] shares this target. Briefly: equilibrium binding of 125I-simian IL-15 to 32Dmβm15Rα-3 cells (recombinant IL-15Rα and IL-2Rβ, γc constitutive).
In test [7] the target is T1, native human IL-15 receptor on human …. Briefly: radiolabeled IL-15 binding to the glioblastoma cell line A-172.
From the text: as §1

The target of test [8] is T3, complexes of murine β and γc (IL-2Rβ and common γ chain) in the absence of the IL-15Rα chain (murine, UniProt P16297 27-539; P34902 23-369).
T3 construct: whole, on cells; On 32Dmβ-5 cells, which also express IL-2Rα and about 40 sites per cell of endogenous IL-15Rα; also called murine IL-2Rβ/γc; 32Dmβ-5 cells
T3 sequence (looked up) 1: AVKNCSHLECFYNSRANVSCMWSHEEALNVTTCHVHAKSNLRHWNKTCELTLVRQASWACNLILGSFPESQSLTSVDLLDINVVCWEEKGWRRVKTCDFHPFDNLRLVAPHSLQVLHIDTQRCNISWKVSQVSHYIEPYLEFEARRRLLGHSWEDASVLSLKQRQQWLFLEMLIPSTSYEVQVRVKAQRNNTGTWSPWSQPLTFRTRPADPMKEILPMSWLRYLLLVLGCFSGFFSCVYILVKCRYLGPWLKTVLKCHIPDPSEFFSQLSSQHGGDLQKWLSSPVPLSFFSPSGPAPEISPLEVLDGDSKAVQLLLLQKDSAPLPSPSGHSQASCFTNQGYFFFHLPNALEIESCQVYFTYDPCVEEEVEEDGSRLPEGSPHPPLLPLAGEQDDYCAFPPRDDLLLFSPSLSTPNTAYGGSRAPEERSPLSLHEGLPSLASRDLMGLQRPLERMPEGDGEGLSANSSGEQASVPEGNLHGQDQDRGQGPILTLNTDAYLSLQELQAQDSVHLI
T3 sequence (looked up) 2: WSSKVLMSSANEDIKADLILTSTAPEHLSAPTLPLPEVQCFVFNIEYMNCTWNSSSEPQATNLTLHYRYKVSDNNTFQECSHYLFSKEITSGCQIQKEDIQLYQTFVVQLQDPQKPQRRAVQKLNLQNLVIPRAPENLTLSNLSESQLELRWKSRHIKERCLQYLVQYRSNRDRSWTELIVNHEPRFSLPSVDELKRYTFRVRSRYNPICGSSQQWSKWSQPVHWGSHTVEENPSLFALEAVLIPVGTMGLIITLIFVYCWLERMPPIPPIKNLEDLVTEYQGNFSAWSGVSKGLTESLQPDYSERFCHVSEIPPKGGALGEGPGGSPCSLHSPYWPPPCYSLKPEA
Briefly: equilibrium binding of 125I-simian IL-15 to 32Dmβ-5 cells: no IL-15 binding sites beyond those of the 32D-01 parent line.

The target in test [9] is T1, native human IL-15 receptor on human …. As to the kind of experiment: radiolabeled IL-15 binding to the human fibroblast line W126-VA4.
From the text: as §1

Test [10] addresses T2, murine IL-15R (full length, cDNA clone …). Briefly: equilibrium binding of 125I-simian IL-15 to 32Dmβ-5 cells (sites ascribed to endogenous IL-15Rα).
For test [11], the target named is T1, native human IL-15 receptor on human …. Briefly: radiolabeled IL-15 binding to vascular endothelial cells of venous origin.
From the text: as §1

T1 sequence (Q13261 31-267): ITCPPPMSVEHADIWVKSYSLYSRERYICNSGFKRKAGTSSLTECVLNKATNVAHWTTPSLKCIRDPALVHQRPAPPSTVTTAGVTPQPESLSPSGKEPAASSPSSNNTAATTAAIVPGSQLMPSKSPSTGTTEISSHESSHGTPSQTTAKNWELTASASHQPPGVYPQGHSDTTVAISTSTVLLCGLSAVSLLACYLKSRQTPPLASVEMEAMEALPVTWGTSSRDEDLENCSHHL

B1: Recombinant flag simian IL-15 expressed in yeast (ligand)
chain: DYKDDDDKNWVNVISDLKKIEDLIQSMHIDATLYTESDVHPSCKVTAMKCFLLELQVISHESGDTDIHDTVENLIILANNILSSNGNITESGCKECEELEEKNIKEFLQSFVHIVQMFINTS
modifications: radioiodinated (125I, enzymobead iodination reagent); labelled residues not stated
notes: Flag-tagged simian IL-15 made in yeast, purified and radioiodinated; also called 125I-IL-15; 125I-simian IL-15
Consider B1, for which the Kd (commonly the constant that tells how readily two partners part at equilibrium) in [1] was 0.163 nM; in test [4], 1 to 2.2 nM; in test [7], 0.05 to 0.138 nM; in test [9], 0.027 nM; in test [11], 0.033 nM. The Ka came to 1.3e+11 M⁻¹ in test [2]; 1.5e+11 M⁻¹ in test [3]; 1.4e+11 M⁻¹ in [5]; 2.2e+11 M⁻¹ in [6]; 1.9e+11 M⁻¹ in test [10]. The binding result in [8] is recorded as “no binding”.
